US20100254975A1 (Amgen, published 2010)

Experiments:
human alpha4beta7 [1] = biological target: T1, human alpha4beta7 (human, UniProt P13612 34-1032; P26010 20-798); experiment: cell-based or functional assay
a4(Q878R)b7 (human) = a4(Q878R)b7 (human) (UniProt P13612); experiment: FACS on transfected 293 cells, 1 microG/ml, PE anti-human IgG
a4(V824A)b7 (human) = a4(V824A)b7 (human) (UniProt P13612); experiment: as above
a4b7(E97V) (human) = a4b7(E97V) (human) (UniProt P13612); experiment: as above
a4b7(G629S) (human) = a4b7(G629S) (human) (UniProt P13612); experiment: as above
a4b7(R213S) (human) = a4b7(R213S) (human) (UniProt P13612); experiment: as above
human alpha4beta7 [2] = biological target: T1, human alpha4beta7; experiment: as above
Description: Point mutant constructs representing amino acid altering SNPs (a4b7(E97V); a4b7(R213S); a4b7(G629S; a4(V824A)b7; a4(Q878R)b7) in the extracellular domains of both alpha4 and beta7 were generated. Each point mutant construct was transfected to 293 cells along with the wild-type partner expression construct. Transfected 293 cells were first stained with 1 microG/ml of human IgG or anti-alpha4beta7 antibody, washed with PBS, and the stained with phycoerytherin conjugated secondary antibody goat-anti human IgG. After washing with PBS, cells were analyzed by fluorescence activated cell sorting, for example, with a FACSCalibur™ (BD Biosciences, San Jose Calif.).

human alpha4beta7 [3] = biological target: T1, human alpha4beta7; experiment: FACS, biotinylated antibody on human CD4+CD45RA- memory T cells
Experimental: Human peripheral blood mononuclear cells (PBMC; fresh or frozen and thawed, for example in phosphate buffered saline with 2% FBS) are washed and resuspended in HEPES buffer (30 mM HEPES+[…]) with 1% BSA, with or without 1 mM MnCl₂ (depending on the experiment; Mn²⁺ is necessary for MAdCAM-1 binding) and plated into 96 well plates (10⁶cells/well). Cells are incubated with 10 microG/ml human IgG for 30 minutes on ice to block nonspecific binding. Cells are then incubated with serial dilutions of biotinylated anti-alpha4beta7 antibodies in 96 well plates for one hour on ice, followed by addition of 1:100 dilution of streptavidin-phycoerythrin (PE; Jackson ImmunoResearch Laboratories Inc., West Grove, Pa.), 4 microL CD3-Pacific Blue, CD4-PerCP-Cy5.5 and CD45RA-fluorescein isothiocyanate (FITC) (BD Biosciences, San Jose Calif.) for a final volume of 100 microL, and incubated for another hour on ice. Cells were washed twice with HEPES buffer (with or without MnCl₂, correspondingly) and then fixed in 200 microL HEPES buffer plus 0.5% paraformaldehyde (again, with or without MnCl₂, correspondingly). The percentage of positive alpha4beta7 antibody binding CD4+CD45RA-memory T cells is determined using a fluorescence activated cell sorter (FACS), for example, a BD™ LSR II benchtop flow cytometer (BD Biosciences, San Jose Calif.).

human alpha4beta7 [4] = biological target: T1, human alpha4beta7; experiment: FACS competition, blocks biotinylated MAdCAM-1-Fc binding to human CD4+CD45RA- memory T cells
Experimental: PBMC (fresh or frozen as described previously) are washed and resuspended in HEPES buffer (30 mM HEPES+[…]) with 1% BSA and 1 mM MnCl. to a final concentration of 10⁷cells/ml. Cells are blocked as described previously; after blocking, cells are incubated with a serial dilution of anti-alpha4beta7 antibody (or appropriate control) in 96 well plates for 30 minutes on ice, and then with 0.3 microG/ml biotinylated MAdCAM-1-Fc protein for another one hour.
After two washes in HEPES buffer with 1 mM MnCl, cells are treated with 1:100 dilution of streptavidin-PE, 4 microL CD3-Pacific Blue, CD4-PerCP-Cy5.5 and CD45RA-FITC as described previously, in a final volume of 100 microL. After one hour incubation on ice, cells are washed twice with HEPES buffer with 1 mM MnCl and then fixed in 200 microL buffer plus 0.5% paraformaldehyde. The percentage of positive MAdCAM-1-Fc binding CD4+CD45RA-memory T cells is determined by fluorescence activated cell sorter (FACS) analysis, as described previously.

a4b7(R213S) (human), sequence (P13612 34-1032, chain 1 of 2): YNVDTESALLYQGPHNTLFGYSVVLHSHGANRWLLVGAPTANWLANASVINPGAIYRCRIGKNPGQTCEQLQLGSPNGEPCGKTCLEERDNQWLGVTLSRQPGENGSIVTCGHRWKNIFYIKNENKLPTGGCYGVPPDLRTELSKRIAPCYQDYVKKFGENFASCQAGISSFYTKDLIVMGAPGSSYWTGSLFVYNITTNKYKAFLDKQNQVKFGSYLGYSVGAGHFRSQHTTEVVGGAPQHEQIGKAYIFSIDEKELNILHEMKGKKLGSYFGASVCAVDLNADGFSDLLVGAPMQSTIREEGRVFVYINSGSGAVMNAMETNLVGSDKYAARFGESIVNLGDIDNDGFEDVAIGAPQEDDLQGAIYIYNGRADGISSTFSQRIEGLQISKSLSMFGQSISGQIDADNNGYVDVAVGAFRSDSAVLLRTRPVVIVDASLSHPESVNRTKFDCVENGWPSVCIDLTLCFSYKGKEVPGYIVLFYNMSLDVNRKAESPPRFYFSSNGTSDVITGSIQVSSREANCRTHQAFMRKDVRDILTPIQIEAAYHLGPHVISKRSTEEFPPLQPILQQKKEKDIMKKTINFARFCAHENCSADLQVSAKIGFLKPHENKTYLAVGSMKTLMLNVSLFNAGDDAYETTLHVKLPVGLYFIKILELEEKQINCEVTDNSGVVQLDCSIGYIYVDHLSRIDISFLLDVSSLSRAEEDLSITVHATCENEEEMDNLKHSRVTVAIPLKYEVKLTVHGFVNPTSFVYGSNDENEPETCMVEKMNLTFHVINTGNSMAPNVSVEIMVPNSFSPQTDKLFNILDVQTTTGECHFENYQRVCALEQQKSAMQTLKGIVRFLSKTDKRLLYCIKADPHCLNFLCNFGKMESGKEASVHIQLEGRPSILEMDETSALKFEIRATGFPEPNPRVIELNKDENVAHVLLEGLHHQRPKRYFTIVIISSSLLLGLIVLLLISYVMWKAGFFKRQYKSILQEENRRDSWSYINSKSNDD
a4b7(R213S) (human), sequence (P26010 20-798 R213S, chain 2 of 2, further chain): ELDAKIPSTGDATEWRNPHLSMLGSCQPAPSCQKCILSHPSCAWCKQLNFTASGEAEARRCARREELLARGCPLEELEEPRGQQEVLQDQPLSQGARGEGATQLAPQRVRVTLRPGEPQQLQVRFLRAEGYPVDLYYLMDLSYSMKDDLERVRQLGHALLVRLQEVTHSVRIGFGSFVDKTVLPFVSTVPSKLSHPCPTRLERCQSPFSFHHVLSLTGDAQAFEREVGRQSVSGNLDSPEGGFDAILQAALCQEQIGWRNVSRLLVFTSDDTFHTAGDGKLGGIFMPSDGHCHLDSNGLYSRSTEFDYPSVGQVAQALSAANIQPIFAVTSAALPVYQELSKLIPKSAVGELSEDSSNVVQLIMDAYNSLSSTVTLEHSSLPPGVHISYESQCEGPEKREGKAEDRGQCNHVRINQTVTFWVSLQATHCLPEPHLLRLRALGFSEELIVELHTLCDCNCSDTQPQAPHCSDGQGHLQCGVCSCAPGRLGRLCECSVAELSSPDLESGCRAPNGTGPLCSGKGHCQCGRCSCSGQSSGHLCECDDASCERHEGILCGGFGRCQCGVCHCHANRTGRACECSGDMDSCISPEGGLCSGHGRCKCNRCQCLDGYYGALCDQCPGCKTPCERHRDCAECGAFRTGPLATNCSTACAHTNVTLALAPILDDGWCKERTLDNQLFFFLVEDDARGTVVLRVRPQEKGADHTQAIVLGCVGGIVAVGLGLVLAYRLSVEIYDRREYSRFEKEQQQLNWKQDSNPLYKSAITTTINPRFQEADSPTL
a4b7(G629S) (human), sequence (P13612 34-1032, chain 1 of 2): as the sequence (P13612 34-1032, chain 1 of 2) above
a4b7(G629S) (human), sequence (P26010 20-798 G629S, chain 2 of 2, further chain): as the sequence (P26010 20-798 R213S, chain 2 of 2, further chain) above, with S194R, G610S counted along it
a4(Q878R)b7 (human), sequence (P13612 34-1032, chain 1 of 2): as the sequence (P13612 34-1032, chain 1 of 2) above
a4(Q878R)b7 (human), sequence (P26010 20-798, chain 2 of 2, further chain): as the sequence (P26010 20-798 R213S, chain 2 of 2, further chain) above, with S194R counted along it
a4b7(E97V) (human), sequence (P13612 34-1032, chain 1 of 2): as the sequence (P13612 34-1032, chain 1 of 2) above
a4b7(E97V) (human), sequence (P26010 20-798 E97V, chain 2 of 2, further chain): as the sequence (P26010 20-798 R213S, chain 2 of 2, further chain) above, with E78V, S194R counted along it
T1 sequence (P13612 34-1032, chain 1 of 2): as the sequence (P13612 34-1032, chain 1 of 2) above
T1 sequence (P26010 20-798, chain 2 of 2): as the sequence (P26010 20-798 R213S, chain 2 of 2, further chain) above, with S194R counted along it
a4(V824A)b7 (human), sequence (P13612 34-1032 V824A, chain 1 of 2): as the sequence (P13612 34-1032, chain 1 of 2) above, with V791A counted along it
a4(V824A)b7 (human), sequence (P26010 20-798, chain 2 of 2, further chain): as the sequence (P26010 20-798 R213S, chain 2 of 2, further chain) above, with S194R counted along it

Binder	HUT78 Adhesion IC50 (human alpha4beta7 [1]) [ng/mL]	fluorescence staining intensity (geometric mean) (a4(Q878R)b7 (human))	fluorescence staining intensity (geometric mean) (a4(V824A)b7 (human))	fluorescence staining intensity (geometric mean) (a4b7(E97V) (human))	fluorescence staining intensity (geometric mean) (a4b7(G629S) (human))	fluorescence staining intensity (geometric mean) (a4b7(R213S) (human))	fluorescence staining intensity (geometric mean) (human alpha4beta7 [2])	EC50 (human alpha4beta7 [3]) [ng/mL]	IC50 (human alpha4beta7 [4]) [ng/mL]
22B2 (antibody, V domains shown, Fully human monoclonal from XenoMouse (human IgG2 or IgG4); kappa light chain; also called 22B2K; 22B2H) VH: EVQLVQSGAEVKEPGESLKISCKGSGYIFTSYWIAWVRQLPGKGLEWMGIIDPNDSDTRYSPSFQGQVTISADKSIHTAYLQWSSLKASDTAMYYCATHRLWLGTLPGGFYIWGQGTMVTVSS VL: DVQMTQSPSSLSASVGDRVTITCQASQDITDYLNWYQQKPGKAPKLLIYDTSNLEAGVPSRFSGSGSGTDFTFTISSLQPEDIATYYCQQYDILPYSFGQGTDLEIK	3.7	58	85	108	65	58	97	5.1	23.2
1A10 (antibody, V domains shown, Fully human monoclonal from XenoMouse XG2kl or XG4kl mice (human IgG2 or IgG4); kappa light chain; also called 1A10K; 1A10H) VH: QVQLVQSGAEVKKPGASVKVSCKVSGYTLNDLSMHWVRQAPGKGLEWMGGFDPAEGKIISAQKFQDRVTMTDDTSTDTAYMELSSLRSEDSAVYYCATLDFSSWFDPWGQGTLVTVSS VL: DIQMTQSPSSVSASVGDRVTITCRASQGVSSWLAWYQQKPGMAPKLLIYAASILQSGVPSRFSGSGSGTDFTLTISSLQPEDFATYYCQQANSFPWTFGQGTKVEIK	6.1	70	102	135	80	31	122	4.9	6.2
3A5 (antibody, V domains shown, Fully human monoclonal from XenoMouse (human IgG2 or IgG4); kappa light chain; also called 3A5K; 3A5H) VH: QVQLVQSGAEVKKPGASVKVSCKVSGYTLNDLSMHWVRQAPGKGLEWMGGFDPAEGKIISAQKFQDRVTMTDDTSTDTAYMELSSLRSEDSAVYYCATLDFSSWFDPWGQGTLVTVSS VL: DIQMTQSPSSVSASVGDRVTITCRASQGVISWLAWYQQKPGMAPKLLIYAASILQSGVPSRFSGSGSGTDFTLTISSLQPEDFATYYCQQANSFPWTFGQGTNVEIK	7.5	71	110	135	80	31	124	5.6	6.2
26G2 (antibody, V domains shown, Fully human monoclonal from XenoMouse (human IgG2 or IgG4); kappa light chain; also called 26G2k; 26G2K) VH: QVQLVESGGGLVKPGGSLRLSCAASGFTFSDYYMSWIRQAPGKGLEWVSYISSIGSAIHYADSVKGRFTISRDNAKNSLYLQMNSLRAEDTAVYYCAREYSSGWAYFDYWGQGTLVTVSS VL: DIQMTQSPSSVSASVGDRVTITCRASQDISSWLAWYQQKPGTAPKVLIYSASSLQNGVPSRFSGRGSGTDFALTISSLQPEDFATYYCQQADSFPWTFGRGTKVEIK	6.9	58	86	113	64	38	99	32.6	99.6

Continued, values first:

HUT78 Adhesion IC50 (human alpha4beta7 [1]) [ng/mL]	fluorescence staining intensity (geometric mean) (a4(Q878R)b7 (human))	fluorescence staining intensity (geometric mean) (a4(V824A)b7 (human))	fluorescence staining intensity (geometric mean) (a4b7(E97V) (human))	fluorescence staining intensity (geometric mean) (a4b7(G629S) (human))	fluorescence staining intensity (geometric mean) (a4b7(R213S) (human))	fluorescence staining intensity (geometric mean) (human alpha4beta7 [2])	EC50 (human alpha4beta7 [3]) [ng/mL]	IC50 (human alpha4beta7 [4]) [ng/mL]	Binder
8.9	–	–	–	–	–	93	9.3	14.1	26H3 (antibody, V domains shown, Fully human monoclonal from XenoMouse (human IgG2 or IgG4); kappa light chain; also called 26H3K; 26H3H) VH: EVQLVQSGAEVKKPGESLKISCKGSGYSFTGYWIGWVRQMPGKGLEWMGIIYPYDSDTRYSPSFQGQVTISADKSINTAYLQWSSLKASDTAMFYCASHRLWLGEFPGPLNIWGQGTMVTVSS VL: DIQMTQSPSSLSASVGDRVTITCQASQDISNYLNWYQQKPGKAPKLLIYDASNLETGVPSRFSGSGSGTDFTFTINSLQPEDIATYFCQQYDNLPCSFGQGTKLEIK
12.2	46	67	108	59	46	94	32.9	103	19G6 (antibody, V domains shown, Fully human monoclonal from XenoMouse (human IgG2 or IgG4); kappa light chain; also called 19G6K; 19G6H) VH: QVQLVESGGDLVKPGGSLRLSCAASGFTFSDYYMSWIRQAPGKGLEWISYISSSGSTMYYADSVKGRFTISRVNAKNSLYLQMNSLRAEDTAVYYCARDRSSGLVSFDYWGQGTLVTVSS VL: DIQMTQSPSSLSASVGDRVTISCQASQDINTYLNWYQQKPGKVPKLLIYDASNLETGVPSRFSGSGSGTDFTFTISGLQPEDIATYYCQQFDNLPITFGQGTRLEIK
13.7	51	77	106	59	33	96	–	77.6	25C9 (antibody, V domains shown, Fully human monoclonal from XenoMouse (human IgG2 or IgG4); kappa light chain; also called 25C9k; 25C9K) VH: QVQLVESGGGLVKPGGSLRLSCAASGFTFNDYYMSWIRQAPGKGLEWVSYISSSGSAIHYADSVKGRFTISRDNAKNSLYLQMNSLRAEDTAVYYCAREYSSGWAYFDYWGQGTLVTVSS VL: DIQMTQSPSSVSASVGDRVTITCRASQDISSWLAWYQRKPGKAPKVLIYSASSLQSGVPSRFSGSGSGTDFTLTISSLQPEDFATYYCQQADSFPWTFGQGTKVEIK
14.9	58	88	116	68	59	102	6.3	8.7	27G8 (antibody, V domains shown, Fully human monoclonal from XenoMouse (human IgG2 or IgG4); lambda light chain; PE-conjugated in the cynomolgus study; also called 27G8L; 27G8H) VH: EVQLVESGGGLVQPGGSLRLSCAASGFTFSSYWMSWVRQASGKGLEWVANIKQDGSEKYYVDSVKGRFTISRDNAKNSLYLQMNSLRAEDTAVYYCAREGGYDWNYADYYGMDVWGQGTTVTVSS VL: QSVLTQPPSVSEAPRQRVTISCSGSNSNIGNNPVNWYQLFPGRAPKLLIYHDDLLPSGVSDRFSGSRSGTSASLAISGLQSEDETDYYCTAWDDSLNGWVFGGGTKLTVL
